Assays:
[1] = molecular target: HLA-A*02:03; assay: IEDB peptide-MHC binding, purified MHC/direct/fluorescence; filed as Kd, often an IC50 or EC50 that approximates it; ≥ and ≤ were set here for values at or beyond the usual limits of such assays
[2] = molecular target: HLA-A*02:12; assay: as above; conditions: source organism: Zaire ebolavirus
[3] = molecular target: HLA-A*02:19; assay: as above
[4] = molecular target: HLA-A*03:01; assay: as above
[5] = molecular target: HLA-A*24:03; assay: as above; conditions: source organism: Zaire ebolavirus
[6] = molecular target: HLA-A*29:02; assay: as above; conditions: source organism: Zaire ebolavirus
[7] = molecular target: HLA-A*68:02; assay: as above; conditions: source organism: Zaire ebolavirus
[8] = molecular target: HLA-B*40:01; assay: as above
[9] = molecular target: HLA-A*02:01; assay: IEDB peptide-MHC binding, purified MHC/competitive/fluorescence; filed as Kd, often an IC50 or EC50 that approximates it; ≥ and ≤ were set here for values at or beyond the usual limits of such assays; conditions: source organism: Zaire ebolavirus
[10] = molecular target: HLA-A*26:01; assay: as above; conditions: source organism: Zaire ebolavirus
[11] = molecular target: HLA-A*69:01; assay: as above; conditions: source organism: Zaire ebolavirus
[12] = molecular target: HLA-B*15:01; assay: as above; conditions: source organism: Zaire ebolavirus
[13] = molecular target: HLA-B*27:03; assay: as above; conditions: source organism: Zaire ebolavirus
[14] = molecular target: HLA-B*39:01; assay: as above; conditions: source organism: Zaire ebolavirus
[15] = molecular target: HLA-B*46:01; assay: as above; conditions: source organism: Zaire ebolavirus
[16] = molecular target: HLA-B*51:01; assay: as above; conditions: source organism: Zaire ebolavirus
[17] = molecular target: HLA-B*57:01; assay: as above; conditions: source organism: Zaire ebolavirus
[18] = molecular target: HLA-B*08:02; assay: IEDB peptide-MHC binding, purified MHC/direct/fluorescence; filed as Kd, often an IC50 or EC50 that approximates it; ≥ and ≤ were set here for values at or beyond the usual limits of such assays; conditions: source organism: Dengue virus 2 Thailand/16681/84
[19] = molecular target: HLA-B*15:01; assay: IEDB peptide-MHC binding, purified MHC/competitive/radioactivity; filed as Kd, often an IC50 or EC50 that approximates it; ≥ and ≤ were set here for values at or beyond the usual limits of such assays; conditions: source organism: Dengue virus 2 Jamaica/1409/1983
[20] = molecular target: HLA-A*01:01; assay: IEDB peptide-MHC binding, purified MHC/direct/fluorescence; filed as Kd, often an IC50 or EC50 that approximates it; ≥ and ≤ were set here for values at or beyond the usual limits of such assays; conditions: source organism: Influenza A virus (A/swine/Hong Kong/5190/99(H3N2))
[21] = molecular target: HLA-A*02:01; assay: as above; conditions: source organism: Influenza A virus (A/Puerto Rico/8/34/Mount Sinai(H1N1))
[22] = molecular target: HLA-A*02:11; assay: as above; conditions: source organism: Influenza A virus(A/swine/Henan/5/2004(H9N2))
[23] = molecular target: HLA-A*24:02; assay: as above; conditions: source organism: Influenza A virus (A/swine/Hong Kong/5190/99(H3N2))
[24] = molecular target: HLA-A*26:01; assay: as above; conditions: source organism: Influenza A virus(A/swine/Henan/5/2004(H9N2))
[25] = molecular target: HLA-B*07:02; assay: as above; conditions: source organism: Influenza A virus (A/swine/Hong Kong/5190/99(H3N2))
[26] = molecular target: HLA-B*15:01; assay: as above; conditions: source organism: Influenza A virus (A/swine/Hong Kong/5190/99(H3N2))
[27] = molecular target: HLA-B*15:09; assay: as above; conditions: source organism: Influenza A virus(A/swine/Henan/5/2004(H9N2))
[28] = molecular target: HLA-B*18:01; assay: as above; conditions: source organism: Influenza A virus (A/swine/Hong Kong/5190/99(H3N2))
[29] = molecular target: HLA-B*27:05; assay: as above; conditions: source organism: Influenza A virus (A/Puerto Rico/8/34/Mount Sinai(H1N1))
[30] = molecular target: HLA-B*44:02; assay: as above; conditions: source organism: Influenza A virus (A/swine/Hong Kong/5190/99(H3N2))
[31] = molecular target: HLA-B*46:01; assay: as above; conditions: source organism: Influenza A virus (A/swine/Hong Kong/5190/99(H3N2))
[32] = molecular target: HLA-B*58:01; assay: as above; conditions: source organism: Influenza A virus (A/swine/Hong Kong/5190/99(H3N2))
[33] = molecular target: HLA-A*31:01; assay: IEDB peptide-MHC binding, purified MHC/competitive/fluorescence; filed as Kd, often an IC50 or EC50 that approximates it; ≥ and ≤ were set here for values at or beyond the usual limits of such assays; conditions: source organism: Influenza A virus (A/Fort Monmouth/1/1947-mouse adapted(H1N1))
[34] = source organism: Zaire ebolavirus
[35] = source organism: Influenza A virus(A/swine/Henan/5/2004(H9N2))

LEFNSSLAI was tested, and the Kd [1, 34] was at least 20000 nM, the Kd [2] was at least 20 µM and the Kd [3, 34] was at least 20 µM. It also gave a Kd [4, 34] of at least 20000 nM, a Kd [5] of at least 20 µM and a Kd [6] of at least 20 µM. The Kd [7] was at least 20 µM, the Kd ([8]; source organism: Ebola virus - Gabon (1994-1997)) was 25.8 nM and the Kd [9] was at least 20 µM. It also gave a Kd [10] of at least 20 µM, a Kd [11] of at least 20 µM and a Kd [12] of at least 20 µM. It also gave a Kd [13] of at least 20 µM, a Kd [14] of at least 20 µM and a Kd [15] of at least 20 µM. For the same sequence, the Kd [16] was at least 20 µM and the Kd [17] was at least 20 µM.
QLKGMSYSM was tested, and the Kd [18] was at least 20 µM and the Kd [19] was 53.9 nM.
With YMFESKSMK the Kd [20] was at least 20 µM, the Kd [21] was 478 nM and the Kd [1, 35] was 24 nM. For the same sequence, the Kd [22] was 3 nM, the Kd [3, 35] was at least 20 µM and the Kd ([4]; source organism: Influenza A virus (A/Puerto Rico/8/34/Mount Sinai(H1N1))) was 232 nM. The Kd [23] was at least 20 µM, the Kd [24] was at least 20 µM and the Kd [25] was at least 20 µM. The Kd [26] was at least 20 µM, the Kd [27] was at least 20 µM and the Kd [28] was at least 20 µM. It also gave a Kd [29] of 155 nM, a Kd ([8]; source organism: Influenza A virus (A/swine/Hong Kong/5190/99(H3N2))) of at least 20000 nM and a Kd [30] of at least 20 µM. The Kd [31] was at least 20 µM, the Kd [32] was at least 20 µM and the Kd [33] was 21.2 nM.

Source: the Immune Epitope Database (IEDB)
